Among the data in patent US20110165605A1 are Relative activity (%) and Ratio (Y82S/Wild-type) values, retold here.

Where a chain is given by its changes, count along the chain named.

In data set [1] the target is casein (Wako Pure Chemical Industries, Ltd.).
In data set [2] the target is separated soybean protein (Fuji Pro F, FUJI OIL CO., LTD.).
The target of data set [3] is wheat gluten (Viten, ROQUETTE Co.).
The target in data set [4] is T1, α-lactalbumin (Sigma Co.).
T1 sequence (P00711 20-142, species assumed, looked up): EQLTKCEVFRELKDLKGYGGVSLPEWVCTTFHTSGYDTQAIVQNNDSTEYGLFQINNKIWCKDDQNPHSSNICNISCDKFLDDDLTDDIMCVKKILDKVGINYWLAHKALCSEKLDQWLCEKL

Data set [5] concerns the target β-lactoglobulin (Sigma Co.).
The target in data set [6] is casein (Wako Pure Chemical Industries, Ltd.). In words: cell-based or functional assay.
The target in data set [7] is separated soybean protein (Fuji Pro F, FUJI OIL CO., LTD.). Kind of data set: cell-based or functional assay.
In data set [8] the target is wheat gluten (Viten, ROQUETTE Co.). Kind of data set: cell-based or functional assay.

B1: mature form of wild-type protein-glutaminase derived from the Chryseobacterium proteolyticum 9670 strain (protein)
chain: LASVIPDVATLNSLFNQIKNQSCGTSTASSPCITFRYPVDGCYARAHKMRQILMNNGYDCEKQFVYGNLKASTGTCCVAWSYHVAILVSYKNASGVTEKRIIDPSLFSSGPVTDTAWRNACVNTSCGSASVSSYANTAGNVYYRSPSNSYLYDNNLINTNCVLTKFSLLSGCSPSPAPDVSSCGF
Take B1: the Relative activity (%) in data set [1] turned out to be 1020%; in data set [2], 127%; in data set [3] it was 2620%; in data set [4], 100%; in data set [5], 61%.

B2: mature form of the protein-glutaminase mutant Tyr82Ser (protein)
chain: B1 chain with Y82S
Turning to B2, the Relative activity (%) in data set [1] was 701%; in data set [2], 531%; in data set [3], 4270%; in data set [4], 100%; in data set [5], 309%. Further, the Ratio (Y82S/Wild-type) was determined as 1 in data set [4]; 5 in data set [5]; 0.7 in data set [6]; 4.2 in data set [7]; 1.6 in data set [8].
